These results are taken from US11633499B2, “Anti-TMEM-180 antibody, anticancer drug and cancer testing method” (NATIONAL CANCER CENTER JAPAN, priority 2016, dated 2023).

The test system of series [1] is normal stroma. Nature of the series: Reactivity to normal stroma. The series is classed as binding. To be noted: compared with the 1361 antibody.
In series [2] the test system is normal tissues (skin, brain, small intestine, liver, heart, lung, kidney). In words: Immune histochemistry of normal human tissues. The series is classed as binding. On the procedure:
The paraffin sections were prepared from the tissue specimens in the same way as shown in Example 6 according to a routine procedure. The prepared sections were subjected to reactions with 1 μg/mL of one of the above antibodies. An HRP-labelled anti rat antibody was used as a secondary antibody, which emitted light with DAB. The observation was performed after hematoxylin staining.

In series [3] the test system is cell lines derived from cancers (ATCC and JCRB). Nature of the series: Reactivity of antibodies to cancer-derived cell lines by FACS (Table 23). The series is classed as binding. On the procedure:
Cancer cells targeted for measurement were cultured in medium and then added to a V-bottom 96-well plate (Corning Incorporated) to a concentration of 1×10^5 cells/well. The plate was centrifuged for 3 minutes at 440×g and 4° C. followed by removing the supernatant, adding antibody-producing hybridoma culture supernatant or antibody solution to the cell pellet at 50 μL/well and suspending therein. After allowing to react for 45 minutes on ice, the plate was washed three times with a mixture of 0.1% BSA, 2 mM EDTA and PBS at 200 μL/well. The supernatant was removed and secondary antibody was added to the cell pellet at 50 μL/well followed by suspending the cells therein. ALEXAFLUOR 647@ (fluorescent compound) goat anti-rat IgG (H-L) (Life Technologies Corporation) was used for the secondary antibody after diluting 400-fold with a mixture of 0.1% BSA, 2 mM EDTA and PBS. After allowing to react for 45 minutes on ice, the plate was washed three times with a mixture of 0.1% BSA, 2 mM EDTA and PBS at 200 μL/well. After removing the supernatant, 50 ng/mL of propidium iodide, 0.1% BSA, 2 mM EDTA and PBS were added to the cell pellet at 250 µL/well followed by suspending therein. The cells stained in this manner were measured using a flow cytometer such as the Guava easyCyte 8HT (Merck Millipore Corporation) followed by analysis of the resulting data using FlowJO (Tomy Digital Biology Co., Ltd.). FACS analysis was carried out using colon cancer, brain tumor and hematologic cancer.
Cancer-detection rates were tested using monoclonal antibodies (the 669 antibody, 1052 antibody, 1105 antibody, and 1361 antibody).
In this Example, the reactivity of the antibodies to the cell lines derived from cancers which were obtained from ATCC and JCRB was analyzed by FACS.
A general note: Flow cytometry measures light scatter and fluorescence of single cells or particles in a stream.

The target in series [4] is T1, exosomes presenting TMEM-180 from DLD-1 cell line (Homo sapiens, UniProt Q14CX5).
T1 construct: endogenous in cells; host or cells: DLD-1 colon cancer cell line (parent / wild type); culture supernatant exosomes in A20
T1 sequence (Q14CX5 1-517): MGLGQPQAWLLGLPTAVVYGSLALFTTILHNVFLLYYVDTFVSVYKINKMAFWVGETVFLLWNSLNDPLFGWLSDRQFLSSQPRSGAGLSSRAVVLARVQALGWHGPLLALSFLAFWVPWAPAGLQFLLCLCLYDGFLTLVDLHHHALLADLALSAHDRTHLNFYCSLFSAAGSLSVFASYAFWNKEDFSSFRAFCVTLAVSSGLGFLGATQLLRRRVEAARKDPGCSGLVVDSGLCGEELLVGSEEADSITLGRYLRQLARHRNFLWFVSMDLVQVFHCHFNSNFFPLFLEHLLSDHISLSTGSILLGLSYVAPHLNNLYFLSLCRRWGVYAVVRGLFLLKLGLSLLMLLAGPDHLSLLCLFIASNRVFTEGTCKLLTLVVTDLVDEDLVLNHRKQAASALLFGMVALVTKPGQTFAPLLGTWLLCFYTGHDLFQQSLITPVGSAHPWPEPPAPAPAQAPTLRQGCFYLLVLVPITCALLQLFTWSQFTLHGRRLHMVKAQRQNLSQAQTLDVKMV
In words: Detection of TMEM-180 exosomes in culture supernatant (immobilized anti-TMEM-180 antibody, anti-CD9 detection). To be noted: immobilized antibody 5 μg/mL; detection with anti-CD9 antibody; FIG. 18. The series is classed as binding. An excerpt:
Thus, the inventors constructed a system for detecting exosomes in the culture supernatant. In this system, an anti-TMEM-180 antibody was immobilized on the surface of the plate, and exosomes containing TMEM-180 which were bound to the immobilized antibody were detected with an anti-CD9 antibody which CD9 is an exosome maker. The DLD-1 cell line (also referred to as “wild type DLD-1 cell line”) was used as cells. The TMEM-180 knockdown DLD-1 cell line and K562 cell line were used as negative controls.
Specifically, an anti-TMEM-180 antibody was diluted with phosphate buffer such that the concentration will be 5 μg/mL, and then added to a 96 well plate (Maxisorp #442404, Thermo Fisher co., Ltd.) at 50 μL/well. The immobilization reaction was performed by incubation for 2 hours at room temperature or for overnight at 4° C. The plate after the immobilization was washed three times with 300 μL/well of a plate washing solution. The plate was blocked with 200 μL/well of a blocking agent (1% BSA/TBS-T), and allowed to stand for 1 hour at room temperature or for overnight at 4° C. […] Then, the optical density at 450 nm was measured with a plate reader.

The subject of series [5] is cell lines derived from cancers (ATCC and JCRB). In words: Reactivity of antibodies to cancer-derived cell lines by FACS (Table 23). Format: binding. The source holds these as a separate data set.
The subject of series [6] is Wildtype DLD-1 cells. Nature of the series: Internalization of the antibody. Format: cell-based, human. The following applies: 488-labelled antibody; 37° C.; 1, 3 or 6 hours; FIG. 25.
Method: Wildtype DLD-1 cells were plated on a 96-well plate at 5,000 cells/well. The plate was incubated at 37° C. for 18 hours. After washing, a 488-labelled 669 antibody was added to the wells at 2 μL/well and was incubated at 37° C. for certain hours (1 hour, 3 hours, or 6 hours). After the wells were washed three times, a rabbit anti 488 antibody was added at 2 μL/well to stand still at 4° C. for 30 minutes to quench the fluorescence derived from the antibodies binding to the cell surface. After the wells were washed three times, 4% PFA was added at 100 μL/well to stand still at room temperature for 10 minutes. After the wells were washed three times, DAPI (1/500 dilution) was added to the wells at 100 μL/well to stand still at room temperature for 5 minutes. After the wells were washed three times, the wells were subjected to photographing or Array Scan analysis.

B1: 1361-7 clone: variant having an amino acid substitution S82A in the 1361 antibody (antibody, V domains shown)
VH: EVQLVESGGGLVQPGRSLKLSCVASGFTFNNYWMTWIRQAPGKGLEWVASITNTGGSTYYPDAVKGRFTISRDYAKSTLYLQMNSLRSEDTATYYCTRAGYSSYPDYFDYWGQGVMLTVSS
VL: NIQMTQSPSLLSASVGDRVTLSCKAGQNIYNYLAWYQQKLGEAPKLLIYNANSLQTGIPSRFSGSGSGTDFTLTISSLQPEDVATYFCQQYSSGWTFGGGTKLELK
Take B1: in series [1], the “reactivity to normal stroma” value is “almost the same as that of the 1361 antibody”.

B2: clone 1361: rat IgG anti-TMEM-180 monoclonal antibody; variable regions SEQ ID NOs: 70 and 71 (antibody, V domains shown)
VH: MDIRLSLVFLVLFIKGVQCEVQLVESGGGLVQPGRSLKLSCVASGFTFNNYWMTWIRQAPGKGLEWVASITNTGGSTYYPDSVKGRFTISRDYAKSTLYLQMNSLRSEDTATYYCTRAGYSSYPDYFDYWGQGVMLTVSS
VL: MMAPVQLLGLLLLWLPAMRCNIQMTQSPSLLSASVGDRVTLSCKAGQNIYNYLAWYQQKLGEAPKLLIYNANSLQTGIPSRFSGSGSGTDFTLTISSLQPEDVATYFCQQYSSGWTFGGGTKLELK
B2: the “staining of normal tissues from skin, brain, small intestine, liver, heart, lung and kidney” value in series [2] (1 μg/mL, paraffin sections) is reported as “negative”. The “reactivity to normal skin tissues” value in series [2] (FIG. 13) was “low reactivity”. For the same molecule, the “Detection Sensitivity of Cancers, P/N” value is on record as “(7/7)” in series [3] (Cancer Type: Brain); “(7/10)” in series [3] (Cancer Type: Colon); “(3/4)” in series [5] (Cancer Type: Bladder); “(2/6)” in series [5] (Cancer Type: Brest); “(5/8)” in series [5] (Cancer Type: Gastric); “(3/3)” in series [5] (Cancer Type: Kidney). The “Detection Sensitivity of Cancers, P/N” value is “(9/9)” in series [5] (Cancer Type: Pancreas) and “(2/3)” in series [5] (Cancer Type: Prostate). For the same molecule, the “Detection Sensitivity of Cancers, Percentage (%)” value in series [3] (Cancer Type: Colon) is on record as 70%; in series [5] (Cancer Type: Bladder), 75%; in series [5] (Cancer Type: Brain) it was 100%; in series [5] (Cancer Type: Brest), 33%; in series [5] (Cancer Type: Gastric), 63%; in series [5] (Cancer Type: Kidney), 100%. Besides, the “Detection Sensitivity of Cancers, Percentage (%)” value is reported as 100% in series [5] (Cancer Type: Pancreas) and 67% in series [5] (Cancer Type: Prostate). Also, in series [3] (comparison of 1361, 669, 1052, 1105), the “recognition of cancers, summary of Table 23” value is on record as “highest sensitivity”. Besides, the “detection of exosomes presenting TMEM-180 in DLD-1 culture supernatant” value in series [4] is listed as “successfully detected”.

B3: clone 669: rat IgM anti-TMEM-180 monoclonal antibody; variable regions SEQ ID NOs: 78 and 79 (antibody, V domains shown)
VH: MGWICIIFLVATATGVHSQVKLLQSGAALVKPGASVKMSCKASGYTFTDYWVSWVKQSHGKSLEWIGEIYPNSGATNFNENFKGKATLTVDKSTSTAYMELSRLTSEDSAIYYCTRDGTMGIAYYFDYWGQGVMVTVSS
VL: MMAAVQLLGLLLLWVPAMRCDIQMTQSPSFLSASVGDRVTINCKASQNINRYLNWYQQKLGEAPKLLIYNANSLQTGIPSRFSGSGSGTDFTLTISSLQPEDVATYFCLQHNSWPYTFGAGTKLELK
Turning to B3, the “Detection Sensitivity of Cancers, P/N” value in series [3] (Cancer Type: Colon) is listed as “(3/10)”; in series [5] (Cancer Type: Pancreas) it was “(3/9)”. The “Detection Sensitivity of Cancers, Percentage (%)” value in series [3] (Cancer Type: Colon) is 30%; in series [5] (Cancer Type: Pancreas), 33%. Moreover, the internalization into cells entry in series [6] is given as “concentrated at a high concentration in the cells”. In addition, the “detection of exosomes presenting TMEM-180 in DLD-1 culture supernatant” value in series [4] was “successfully detected”.
